We go through 75 sequences from the supplement of paper PMC7877785.

± gives the uncertainty stated by the source.

A short description of this data set: self-splicing fitness, log relative to wild type (ln ratio); higher = more splicing; Tetrahymena group I intron in knt gene, E. coli kanamycin selection, DiMSum; sequences stand for … in CUCUCU…GGAGGGAAAAGUUAUCAGGCAUGCACCUGGUAGCUAGUCUUUAAACCAAUAGAUUGCAUCGGUUUAAAAGGCAAGACCGUCAAAUUGCGGGAAAGGGGUCAACAGCCGUUCAGUACCAAGUCUCAGGGGAAACUUUGAGAUGGCCUUGCAAAGGGUAUGGUAAUAAGCUGACGGACAUGGUCCUAACCACGCAGCCAAGUCCUAAGUCAACAGAUCUUCUGUUGAUAUGGAUGCAGUUCACAGACUAAAUGUCGGUCGGGGAAGAUGUAUUCUUCUCAUAAGAUAUAGUCGGACCUCUCCUUAAUGGGAGCUAGCGGAUGAAGUGAUGCAACACUGGAGCCGCUGGGAACUAAUUUGUAUGCGAAAGUAUAUUGAUUAGUUUUGGAGUACUCGUGGUCG
The essentials:
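The eight P1ex-region nucleotides of an intron in the knt kanamycin-resistance gene on pET-22b(+) were all randomised and the library put into E. coli BL21(DE3). Six replicate transformations were grown overnight at 37°C or 30°C on LB agar with or without 25 μg/mL kanamycin, together with 100 μg/mL carbenicillin, 50 μM IPTG and 0.2% rhamnose. Colonies were pooled and amplicon-sequenced on an Illumina HiSeq 2500. Fitness from DiMSum is the error-weighted combination of wild-type-normalised replicate fold changes, kanamycin over none.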

With ACGUAGCAAUAUUACGAUUC, the “self-splicing fitness (ln)” value (30 °C) was -2.39 ± 0.11 and the “self-splicing fitness (ln)” value (37 °C) was -2.41 ± 0.21.
Regarding ACGUAGCAAUAUUACGCAGA, the “self-splicing fitness (ln)” value was -3.08 ± 0.27 (30 °C) and -2.48 ± 0.18 (37 °C).
On the same counts, the results for ACGUAGCAAUAUUACGCCAC are -4.5 ± 0.39 and -2.54 ± 0.44.
For the sequence ACGUAGCAAUAUUACGCCCA, the “self-splicing fitness (ln)” value is, setting by setting: (30 °C) -0.614 ± 0.12; (37 °C) -0.952 ± 0.14.
On the same counts, the results for ACGUAGCAAUAUUACGCCCU are -0.282 ± 0.11 and -0.245 ± 0.095.
In the case of ACGUAGCAAUAUUACGCGGG, the “self-splicing fitness (ln)” value reads like this: (30 °C) -2.32 ± 0.12; (37 °C) -0.863 ± 0.11.
ACGUAGCAAUAUUACGCUGA: the “self-splicing fitness (ln)” value was -1.81 ± 0.089 (30 °C) and -0.483 ± 0.085 (37 °C).
Take ACGUAGCAAUAUUACGCUGC: the “self-splicing fitness (ln)” value (30 °C) is -3.09 ± 0.34 and the “self-splicing fitness (ln)” value (37 °C) was -1.44 ± 0.38.
For ACGUAGCAAUAUUACGGCCA, in that order: 0.73 ± 0.19 and 0.143 ± 0.18.
On the same counts, the results for ACGUAGCAAUAUUACGGCGC are -1.11 ± 0.083 and -0.695 ± 0.098.
Consider ACGUAGCAAUAUUACGGCUU, for which the “self-splicing fitness (ln)” value is, setting by setting: (30 °C) 0.0669 ± 0.089; (37 °C) 0.194 ± 0.11.
With ACGUAGCAAUAUUACGGUAC, the “self-splicing fitness (ln)” value by setting is: (30 °C) -3.46 ± 0.18; (37 °C) -2.57 ± 0.3.
For ACGUAGCAAUAUUACGGUCC, in that order: -1.64 ± 0.15 and -0.357 ± 0.15.
As to ACGUAGCAAUAUUACGUAAC, the “self-splicing fitness (ln)” value (30 °C) is -3.5 ± 0.37 and the “self-splicing fitness (ln)” value (37 °C) was -2.46 ± 0.48.
ACGUAGCAAUAUUACGUACA: the “self-splicing fitness (ln)” value is, setting by setting: (30 °C) -2.02 ± 0.25; (37 °C) -0.998 ± 0.22.
For ACGUAGCAAUAUUACGUAGU, in that order: -3.78 ± 0.23 and -1.26 ± 0.16.
With ACGUAGCAAUAUUACGUAUC, the “self-splicing fitness (ln)” value was -3.45 ± 0.24 (30 °C) and -2.89 ± 0.26 (37 °C).
On the same counts, the results for ACGUAGCAAUAUUACGUGAA are -3.92 ± 0.23 and -1.82 ± 0.17.
As for ACGUAGCAAUAUUACGUGAG, the “self-splicing fitness (ln)” value was -3.75 ± 0.17 (30 °C) and -2.55 ± 0.14 (37 °C).
As for ACGUAGCAAUAUUACGUGUA, the “self-splicing fitness (ln)” value reads like this: (30 °C) -2.51 ± 0.14; (37 °C) -2.2 ± 0.14.
For ACGUAGCAAUAUUACGUGUC, in that order: -3.68 ± 0.32 and -2.48 ± 0.37.
For ACGUAGCAAUAUUACGUUGA, the “self-splicing fitness (ln)” value reads like this: (30 °C) -3.4 ± 0.29; (37 °C) -2.78 ± 0.28.
On the same counts, the results for ACGUAGCAAUAUUACGUUGG are -4.55 ± 0.31 and -2.85 ± 0.25.
ACUAAGCAAUAUUACGAACG: the “self-splicing fitness (ln)” value by setting is: (30 °C) -1.1 ± 0.1; (37 °C) -0.438 ± 0.15.
Turning to ACUAAGCAAUAUUACGAAUU, the “self-splicing fitness (ln)” value is, setting by setting: (30 °C) -2.52 ± 0.096; (37 °C) -0.972 ± 0.089.
For ACUAAGCAAUAUUACGACCA, in that order: -0.124 ± 0.23 and 0.571 ± 0.2.
On the same counts, the results for ACUAAGCAAUAUUACGACGA are 0.0648 ± 0.13 and 0.181 ± 0.13.
On the same counts, the results for ACUAAGCAAUAUUACGAGGU are -3 ± 0.14 and -3.37 ± 0.25.
Take ACUAAGCAAUAUUACGAUAA: the “self-splicing fitness (ln)” value (30 °C) is -1.94 ± 0.17 and the “self-splicing fitness (ln)” value (37 °C) is -0.57 ± 0.17.
On the same counts, the results for ACUAAGCAAUAUUACGAUAU are -1.39 ± 0.12 and -2.28 ± 0.16.
ACUAAGCAAUAUUACGCAUG: the “self-splicing fitness (ln)” value is -2.31 ± 0.091 (30 °C) and -0.766 ± 0.091 (37 °C).
For ACUAAGCAAUAUUACGCCAG, the “self-splicing fitness (ln)” value is, setting by setting: (30 °C) -0.955 ± 0.14; (37 °C) -0.843 ± 0.2.
For ACUAAGCAAUAUUACGCCCC, in that order: -0.566 ± 0.13 and 0.127 ± 0.17.
As to ACUAAGCAAUAUUACGGAAG, the “self-splicing fitness (ln)” value reads like this: (30 °C) -2.59 ± 0.13; (37 °C) -1.55 ± 0.15.
For ACUAAGCAAUAUUACGGACA, in that order: -0.625 ± 0.094 and -0.362 ± 0.12.
On the same counts, the results for ACUAAGCAAUAUUACGGGAC are -2.94 ± 0.14 and -0.635 ± 0.12.
For ACUAAGCAAUAUUACGGGGC, in that order: -4.09 ± 0.42 and -2.79 ± 0.24.
With ACUAAGCAAUAUUACGGGUC, the “self-splicing fitness (ln)” value by setting is: (30 °C) -3.49 ± 0.34; (37 °C) -0.75 ± 0.23.
For ACUAAGCAAUAUUACGUAGG, the “self-splicing fitness (ln)” value runs as follows: (30 °C) -1.4 ± 0.074; (37 °C) -0.98 ± 0.1.
Regarding ACUAAGCAAUAUUACGUCGG, the “self-splicing fitness (ln)” value runs as follows: (30 °C) -1.99 ± 0.068; (37 °C) -1.04 ± 0.087.
Take ACUAAGCAAUAUUACGUGUA: the “self-splicing fitness (ln)” value by setting is: (30 °C) -2.6 ± 0.13; (37 °C) -1.38 ± 0.12.
On the same counts, the results for ACUAAGCAAUAUUACGUUAU are -3.49 ± 0.13 and -1.55 ± 0.11.
For ACUAAGCAAUAUUACGUUGA, in that order: -2.67 ± 0.12 and -1.92 ± 0.13.
As to ACUCAGCAAUAUUACGAGAA, the “self-splicing fitness (ln)” value is, setting by setting: (30 °C) -1.51 ± 0.21; (37 °C) -0.586 ± 0.2.
Take ACUCAGCAAUAUUACGAGGU: the “self-splicing fitness (ln)” value runs as follows: (30 °C) -3.47 ± 0.18; (37 °C) -1.68 ± 0.17.
For ACUCAGCAAUAUUACGCAAA, in that order: -2.02 ± 0.12 and -0.838 ± 0.11.
On to ACUCAGCAAUAUUACGCAAC, for which the “self-splicing fitness (ln)” value reads like this: (30 °C) -2.14 ± 0.17; (37 °C) -2.43 ± 0.26.
As to ACUCAGCAAUAUUACGCACG, the “self-splicing fitness (ln)” value by setting is: (30 °C) -1 ± 0.078; (37 °C) -0.784 ± 0.13.
With ACUCAGCAAUAUUACGGAUG, the “self-splicing fitness (ln)” value reads like this: (30 °C) -1.36 ± 0.068; (37 °C) -0.69 ± 0.098.
As to ACUCAGCAAUAUUACGGCCG, the “self-splicing fitness (ln)” value is -1.87 ± 0.13 (30 °C) and -0.609 ± 0.15 (37 °C).
For ACUCAGCAAUAUUACGGCGU, in that order: -0.555 ± 0.059 and 0.0604 ± 0.074.
For ACUCAGCAAUAUUACGGUAC, in that order: -2.63 ± 0.13 and -3.01 ± 0.21.
For ACUCAGCAAUAUUACGGUCG, the “self-splicing fitness (ln)” value (30 °C) was -3.23 ± 0.12 and the “self-splicing fitness (ln)” value (37 °C) was -1.33 ± 0.1.
As to ACUCAGCAAUAUUACGUACG, the “self-splicing fitness (ln)” value is, setting by setting: (30 °C) -2.58 ± 0.14; (37 °C) -0.864 ± 0.11.
For ACUCAGCAAUAUUACGUCUA, in that order: -0.845 ± 0.081 and -0.152 ± 0.076.
On the same counts, the results for ACUCAGCAAUAUUACGUCUG are -3.57 ± 0.14 and -2.74 ± 0.16.
Take ACUGAGCAAUAUUACGAAGA: the “self-splicing fitness (ln)” value by setting is: (30 °C) -2.33 ± 0.22; (37 °C) -1.64 ± 0.2.
Regarding ACUGAGCAAUAUUACGAAUA, the “self-splicing fitness (ln)” value (30 °C) is -2.97 ± 0.28 and the “self-splicing fitness (ln)” value (37 °C) was -2.65 ± 0.29.
ACUGAGCAAUAUUACGAGCU: the “self-splicing fitness (ln)” value (37 °C) was -1.02 ± 0.32.
Regarding ACUGAGCAAUAUUACGCAAG, the “self-splicing fitness (ln)” value (30 °C) is -2.68 ± 0.28 and the “self-splicing fitness (ln)” value (37 °C) was -1.54 ± 0.19.
For ACUGAGCAAUAUUACGCACC, in that order: -2 ± 0.4 and -2.15 ± 0.42.
For ACUGAGCAAUAUUACGCCUG, in that order: -2.36 ± 0.19 and -1.48 ± 0.19.
For ACUGAGCAAUAUUACGCCUU, in that order: -1.55 ± 0.2 and -0.418 ± 0.24.
Consider ACUGAGCAAUAUUACGCGUG, for which the “self-splicing fitness (ln)” value reads like this: (30 °C) -2.2 ± 0.092; (37 °C) -1.05 ± 0.1.
For ACUGAGCAAUAUUACGCUAA, the “self-splicing fitness (ln)” value is -3.41 ± 0.43 (30 °C) and -3.71 ± 0.39 (37 °C).
On the same counts, the results for ACUGAGCAAUAUUACGCUCG are -2.59 ± 0.24 and -1.59 ± 0.23.
Turning to ACUGAGCAAUAUUACGGACU, the “self-splicing fitness (ln)” value runs as follows: (30 °C) -1.08 ± 0.077; (37 °C) -0.672 ± 0.093.
For ACUGAGCAAUAUUACGGAGU, in that order: -2.8 ± 0.41 and -1.78 ± 0.33.
On the same counts, the results for ACUGAGCAAUAUUACGGCCC are -1.95 ± 0.3 and -0.993 ± 0.26.
On the same counts, the results for ACUGAGCAAUAUUACGGGCG are -2.3 ± 0.15 and -1.01 ± 0.18.
Regarding ACUGAGCAAUAUUACGGUCG, the “self-splicing fitness (ln)” value reads like this: (30 °C) -3.49 ± 0.16; (37 °C) -1.46 ± 0.16.
For ACUGAGCAAUAUUACGGUGA, the “self-splicing fitness (ln)” value reads like this: (30 °C) -2.02 ± 0.13; (37 °C) -3.65 ± 0.24.
For ACUGAGCAAUAUUACGUACA, in that order: -1.96 ± 0.24 and -0.524 ± 0.17.
For ACUGAGCAAUAUUACGUCCU, in that order: -2.07 ± 0.11 and -0.865 ± 0.12.
ACUGAGCAAUAUUACGUCGC: the “self-splicing fitness (ln)” value by setting is: (30 °C) -3.35 ± 0.26; (37 °C) -2.18 ± 0.21.
